Legend:
[1] = tested on: MS2 coat protein; test: apparent KD of MS2 coat protein, switch OFF state (with FMN for OFF switches, without FMN for ON switches); designed switch direction (-1 OFF switch, 1 ON switch): -1; higher = weaker reporter binding; conditions: FMN input: 0 or 200 uM; Eterna round: R93 (includes R88 designs)
Method in brief: (§1)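 The buffer was 100 mM Tris-HCl pH 7.5 with 80 mM KCl and 4 mM MgCl2, used without or with constant ligand. In it, RNA switches transcribed on-chip from Illumina sequencing clusters were titrated with SNAP-549-labelled MS2 coat protein in twofold steps from 0.7 or 1.5 nM to 3 µM. Apparent KD for each design is the median of its normalised cluster binding-curve fits.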

[2] = tested on: MS2 coat protein; test: apparent KD of MS2 coat protein, switch ON state; designed switch direction (-1 OFF switch, 1 ON switch): -1; higher = weaker reporter binding; conditions: FMN input: 0 or 200 uM; Eterna round: R93 (includes R88 designs)
Method in brief: as §1

| Sequence | apparent KD of MS2 coat protein [1] | apparent KD of MS2 coat protein [2] |
| --- | --- | --- |
| AGCUAGUCAGGAUAUACAAACAUGUCAAAAGACGUGAAGGAACAUGAGGAUCACCCAUGUAGAAGGGACUAGCA [Web Mod 74% 3] | 19.5 nM | 21 nM |
| AGCUAGUCAGGAUAUACGAACACGUCAAAAGACGUGAAGGGACAUGAGGAUCACCCAUGUAGAAGGGACUAGCA [Mat - Exclusion 2 - JL mod - D24] | 114 nM | 29.8 nM |
| AGCUAGUCAGGAUAUACGAACAGGUCAAAAGACGUGAAGGGACAUGAGGAUCACCCAUGUAGAAGGGACUAGCA [Mat - Exclusion 2 - JL mod - D23] | 116 nM | 39.6 nM |
| AGCUAGUCAGGAUAUACGAACAGGUGAAAAGACGUAAGGGAACAUGAGGAUCACCCAUGUAGAAGGGACUAGCA [Diamond 53] | 99.3 nM | 91.3 nM |
| AGCUAGUCAGGAUAUACGAACAUGUCAAAAGACGUGAAAUAACAUGAGGAUCACCCAUGUAGAAGGGACUAGCA [Mat - Exclusion 2 - JL-Eli mod - D52] | 15.5 nM | 17.4 nM |
| AGCUAGUCAGGAUAUACGAGAAAGAAAGAAGAAGUGAAGGGACAUGAGGAUCACCCAUGUAGAAGGGACUAGCA [Diamond 27] | 160 nM | 51.9 nM |
| AGGAAACAUGAGGAUCACCCAUGUCAGGAUAUUGGAAAGAAAAGAAAAGAAAGAAGAAUAAGAAGGGACAAGAA [Hor-Aha] | 25.1 nM | 38.7 nM |
| AGGAAACAUGAGGAUCACCCAUGUGAGGAUAUACAAAAGAAAAGAAAAGAAAGAAGAAGUAGAAGGCACAAGAA [Thesh] | 29.5 nM | 26.2 nM |
| AGGUGGUCAGGAUAUGCGUGAAGAAUAAAACAAAUAACAACGCAGAAGGGACAUGAGGAUCACCCAUGUCACCA [May 52] | 16.6 nM | 20.7 nM |
| AGUAGAUCAGGAUAUACAUAAAUGAUAAUUAUGUAAUUUCUACAUGAGGAUCACCCAUGUAGAAGGGAUCUACA [Ex2 Design 136: Not so Super Stable 24] | 15.2 nM | 14.4 nM |
| AGUAGAUCAGGAUAUACAUGAAAGAUCAAAAUGUCCAAUAUACAUGAGGAUCACCCAUGUAGAAGGGAUCUACA [Ex2 Design 115: Not so Super Stable 2] | 50.5 nM | 99.9 nM |
| AGUAGUACAGGAUAUACAUGAGGAUCACCCAUGUGAAAAUUAAGUGGCGUACCACAAAGUAGAAGGGUACUACA [Mat - Exclusion 3 - JL mod - D36] | 148 nM | 31 nM |
| AGUCAUACAGGAUAUACAUGAGGAUCACCCAUGUUUAUCCUAAAAUAAAAAAACUCAUGUAGAAGGGUAUGACA [EX3 214: Super Stable 14] | 31.3 nM | 13 nM |
| AGUCUGAGAGGAUAUACAUAGGAAAAAAAAGUCAGAUCCCUACAUGAGGAUCACCCAUGUAGAAGGCUCUGACA [Ex2 Design 148: Sub-opt 12] | 12.6 nM | 13.9 nM |
| AGUUAGCGAGGAUAUACAUGAGGAUCACCCAUGUGAGAGAAAAAAGUGAGAAAUAAAAGUAGAAGGCGCUAACA [Mat - Exclusion 3 - Eli mod - D69] | 361 nM | 38.9 nM |
| AGUUGGCGAGGAUAUACAUGAGGAUCACCCAUGUAAAAAAAAAAAAAAAAAACUUCAUGUAGAAGGCGCUGACA [Starry Exclusion 3.4 (biggestlegoheroicafanever round 1 mod)] | 63.1 nM | 85.5 nM |
| AGUUGGCGAGGAUAUACAUGAGGAUCACCCAUGUGAAAGAAAAAAGUGAGAAAGAAAAGUAGAAGGCGCUGACA [73%, Moding Norbert Elias, 2] | 181 nM | 54.7 nM |
| AGUUGGCGAGGAUAUACAUGAGGAUCACCCAUGUGAAAUAAUGAAAAAGUAGGGAAAAGUAGAAGGCGCUGACA [73%, Moding Norbert Elias, 20] | 143 nM | 37.7 nM |
| AGUUGGCGAGGAUAUACAUGAGGAUCACCCAUGUGAAAUCGAGAAAAAAUAGGGAAAAGUAGAAGGCGCUGACA [Ruby 62] | 90.6 nM | 22.5 nM |
| AGUUGGCGAGGAUAUACAUGAGGAUCACCCAUGUGAGAGAAAAAAGUGAGAAAGAAAAGUAGAAGGCGCGGACA [Ruby 1] | 70.4 nM | 47.3 nM |

| Sequence | apparent KD of MS2 coat protein [1] | apparent KD of MS2 coat protein [2] |
| --- | --- | --- |
| AGUUGGCGAGGAUAUACAUGAGGAUCACCCAUGUGAGAGUAAAGAGUGAGAAAGAGAAGUAGAAGGCGCUGACA [Ruby 56] | 180 nM | 81.1 nM |
| AUAAAACAUGAGGAUCACCCAUGUGAGGAUAUCUAAAAAGAAAGAAAAAAAAAAAAAAAGAGAAGGCACAAUAA [Amethyst 45] | 31.8 nM | 27.7 nM |
| AUAAACAGAGGAUAUACGCAAAUAAAAGAAAAUAAAGAAACACAUGAGGAUCACCCAUGUAGAAGGCUGGAAAA | 16.7 nM | 21.1 nM |
| AUAAAGUGAGGAUAUCGAAGACUGUCGAAAAGACAGUCGAACGAGAAGGCACAUGAGGAUCACCCAUGUGAGGG [Mat - Exaclusion 4 - Eli mod - D68] | 122 nM | 79.7 nM |
| AUAAUGCGAGGAUAUACAUGAGGAUCACCCAUGUAAAUCAAUAGGAGAGCCACAUUAAGUAGAAGGUGCAUUAA [JR_Exc003_Sub502] | 49.1 nM | 20.4 nM |
| AUACGCUGAGGAUAUACCGAAACAACAUCCUCGUGUAUAAUACAUGAGGAUCACCCAUGUAGAAGGCAGUAAAA [Usmaan] | 85.5 nM | 46.2 nM |
| AUAGUACAUGAGGAUCACCCAUGUCAGGAUAUUCGAAACGAAAAAAAAAAAAAGUGAAGGAGAAGGGACUAUAA [EX1 Malc#10] | 21.1 nM | 17.5 nM |
| AUAGUACAUGAGGAUCACCCAUGUCAGGAUAUUGGAUAUGAAAAAAAAAAAAAGUUAACGAGAAGGGACUAUAA [EX1 Malc#14] | 33.6 nM | 28.5 nM |
| AUCAUCCUAGGAUAUACAUGGAUAUACAUUCAUGUGGACCUACAUGAGGAUCACCCAUGUAGAAGGAGGAUGAA [Mat - Same state - Mayanna Mod - D139] | 75.1 nM | 36.7 nM |
| AUCAUGUAAGGAUAUUAAAGAAAAGAAAAGAAAGAAAAGAAUAAGAAGGUACAUGAGGAUCACCCAUGUAAGAA [EteRNA is fun!] | 17 nM | 27 nM |
| AUCAUGUUAGGAUAUAAAAGAAAAGAAAAGAAAGAAAAGAAUUAGAAGGAACAUGAGGAUCACCCAUGUAAGAA [EteRNA is fun!] | 26.5 nM | 34.7 nM |
| AUCGAUCGAGGAUAUACAUGAGGAUCACCCAUGUAAAGCAGAAGAAAGGCCUCAGGAUGUAGAAGGCGACGCAA [JR_Exc003_Sub404] | 41.9 nM | 17.1 nM |
| AUCUUGUCAGGAUAUCGUAUAAUAUGGAAAACAUAGAGAUACGAGAAGGGACAUGAGGAUCACCCAUGUAAAAC [May 97] | 40 nM | 41.7 nM |
| AUUAAACAUGAGGAUCACCCAUGUGAGGAUAUGCAAAAAAAAUUAUAUUAAAAAAAAAGCAGAAGGCACAUAUA [coft] | 62.3 nM | 36.3 nM |
| CAAAACAGAGGAUAUACAUGAGGAUCACCCAUGUAAAAAUGUAGAAGGCUGAAACAAACAAGAAGGAAACAAAA [Meechl Ex3 R2 m3] | 30.1 nM | 23.7 nM |
| CAGUACUGAGGAUAUACAUGAGGAUCACCCAUGUAAAAAAGCUACGAAAGUAGCAAAUGUAGAAGGCAGUACUG [Ex3: 804] | 22.8 nM | 15.5 nM |
| CCUAUGUCAGGAUAUCAGUAGUAAAAAAAAAAAAUUACUACUGAGAAGGGACAUGAGGAUCACCCAUGUCCCUU [EX4 309: Super Stable 9] | 14.3 nM | 15.3 nM |
| CUCAUGUAAGGAUAUAUAUGAAAUGAAGUGAAAGAAAAGAAAUAGAAGGUACAUGAGGAUCACCCAUGUUAGAA [EteRNA is fun!] | 38.7 nM | 59.2 nM |
| CUCUAGUCAGGAUAUUCAAGAAAAGAAAAGAAAGAAAAGAAGAAGAAGGGACAUGAGGAUCACCCAUGUAAGAA [EteRNA is fun!] | 46.5 nM | 46.7 nM |
| CUCUUGUAAGGAUAUUAAUGAAAUGAAGUGAAAGAAAAGAAUAAGAAGGUACAUGAGGAUCACCCAUGUUAGAA [EteRNA is fun!] | 27 nM | 28.9 nM |
